Changes are numbered by the printed parent chain.
T1: Rat ROBO2 on cells (rat, UniProt Q7TPD3 22-1469 (mouse entry))
T1 construct: overexpressed on HEK293 cells in flow cytometry; endogenous on rat SVZ neuronal explants in the SVZa assay
T1 chain: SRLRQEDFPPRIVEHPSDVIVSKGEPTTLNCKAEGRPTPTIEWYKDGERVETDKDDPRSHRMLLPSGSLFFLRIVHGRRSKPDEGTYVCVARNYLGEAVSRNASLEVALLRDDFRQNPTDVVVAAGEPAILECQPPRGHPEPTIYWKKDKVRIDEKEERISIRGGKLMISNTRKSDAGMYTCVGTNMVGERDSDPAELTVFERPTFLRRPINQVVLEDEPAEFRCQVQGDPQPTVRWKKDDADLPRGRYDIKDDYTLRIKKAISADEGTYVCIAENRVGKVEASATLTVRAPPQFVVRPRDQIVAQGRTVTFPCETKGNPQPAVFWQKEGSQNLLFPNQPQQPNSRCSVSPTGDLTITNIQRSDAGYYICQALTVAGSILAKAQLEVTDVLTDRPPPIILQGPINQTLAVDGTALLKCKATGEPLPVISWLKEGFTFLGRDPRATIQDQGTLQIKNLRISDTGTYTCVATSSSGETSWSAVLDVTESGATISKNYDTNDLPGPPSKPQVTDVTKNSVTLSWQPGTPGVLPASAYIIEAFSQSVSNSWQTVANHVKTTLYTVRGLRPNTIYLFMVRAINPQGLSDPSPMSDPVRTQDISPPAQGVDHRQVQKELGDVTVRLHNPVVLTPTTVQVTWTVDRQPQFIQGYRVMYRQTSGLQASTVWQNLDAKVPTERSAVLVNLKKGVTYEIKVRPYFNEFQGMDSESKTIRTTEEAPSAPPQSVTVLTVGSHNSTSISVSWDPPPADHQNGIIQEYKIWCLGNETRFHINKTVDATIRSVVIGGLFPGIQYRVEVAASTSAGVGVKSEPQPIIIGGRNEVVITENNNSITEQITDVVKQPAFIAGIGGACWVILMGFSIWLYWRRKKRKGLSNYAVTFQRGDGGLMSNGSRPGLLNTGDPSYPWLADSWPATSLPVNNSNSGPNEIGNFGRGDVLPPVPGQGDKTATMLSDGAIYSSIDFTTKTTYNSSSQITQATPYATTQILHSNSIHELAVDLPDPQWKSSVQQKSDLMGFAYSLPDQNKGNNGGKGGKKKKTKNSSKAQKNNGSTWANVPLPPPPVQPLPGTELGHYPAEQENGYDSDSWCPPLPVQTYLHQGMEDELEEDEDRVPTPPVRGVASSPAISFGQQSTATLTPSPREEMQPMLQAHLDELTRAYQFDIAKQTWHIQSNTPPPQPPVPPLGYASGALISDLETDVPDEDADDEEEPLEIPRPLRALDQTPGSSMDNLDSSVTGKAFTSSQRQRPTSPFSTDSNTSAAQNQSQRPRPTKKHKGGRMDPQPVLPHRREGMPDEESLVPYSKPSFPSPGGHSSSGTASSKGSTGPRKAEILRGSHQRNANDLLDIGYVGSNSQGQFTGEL

B1: 93H2 (antibody, human IgG1, kappa, V domains shown)
VH: EVQLVQSGAEVKKPGASVKVSCKASGYTFTGYYMHWVRQAPGQGLEWMGWINPNSGATNFPQKFQGRVTMTRDTSITTAYMDLSRLRSDDTAVYYCARESGDDAFDIWGQGTMVTVSS
VL: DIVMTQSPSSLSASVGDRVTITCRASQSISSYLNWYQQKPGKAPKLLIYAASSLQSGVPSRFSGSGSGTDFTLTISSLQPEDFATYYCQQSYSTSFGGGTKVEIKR
notes: also called parental 93H2; 93H2 mAb
B2: Abcs25 (antibody, human IgG1, kappa, V domains shown)
VH: B1 VH with N54K, S55D, A57D, N59E
VL: DIVMTQSPSSLSASVGDRVTITCRASQSISSYLNWYQQKPGKAPKLLIYAASSLQSGVPSRFSGSGSGTDFTLTISSLQPEDFATYYCQQSVGLSFGGGTKVEIKR
notes: chain-shuffled IgG
B3: Abcs35 (antibody, human IgG1, kappa)
heavy: EVQLVQSGAEVKKPGASVKVSCKASGYTFTGYYMHWVRQAPGQGLEWMGWINPKNGDTEFPQKFQGRVTMTRDTSITTAYMDLSRLRSDDTAVYYCARESGDDAFDIWGQGTMVTVSSASTKGPSVFPLAPSSKSTSGGTAALGCLVKDYFPEPVTVSWNSGALTSGVHTFPAVLQSSGLYSLSSVVTVPSSSLGTQTYICNVNHKPSNTKVDKKVEPKSCDKTHTCPPCPAPEAAGAPSVFLFPPKPKDTLMISRTPEVTCVVVDVSHEDPEVKFNWYVDGVEVHNAKTKPREEQYNSTYRVVSVLTVLHQDWLNGKEYKCKVSNKALPAPIEKTISKAKGQPREPQVYTLPPSREEMTKNQVSLTCLVKGFYPSDIAVEWESNGQPENNYKTTPPVLDSDGSFFLYSKLTVDKSRWQQGNVFSCSVMHEALHNHYTQKSLSLSPGK
light: DIVMTQSPSSLSASVGDRVTITCRASQSISSYLNWYQQKPGKAPKLLIYAASSLQSGVPSRFSGSGSGTDFTLTISSLQPEDFATYYCQQSVGLFFGGGTKVEIKRTVAAPSVFIFPPSDEQLKSGTASVVCLLNNFYPREAKVQWKVDNALQSGNSQESVTEQDSKDSTYSLSSTLTLSKADYEKHKVYACEVTHQGLSSPVTKSFNRGEC
notes: fully human IgG1; VH of Ab96 with VL of Ab123

Target: T2, Human ROBO1 RSK mutant overexpressed on HEK293 cells (human, UniProt Q9Y6N7 26-1651)
T2 construct: K137R and R139K already in the entry; also called ROBO1-RSK cells
T2 sequence (Q9Y6N7 other isoform, or with tags, fused parts or gaps mutant limits assumed): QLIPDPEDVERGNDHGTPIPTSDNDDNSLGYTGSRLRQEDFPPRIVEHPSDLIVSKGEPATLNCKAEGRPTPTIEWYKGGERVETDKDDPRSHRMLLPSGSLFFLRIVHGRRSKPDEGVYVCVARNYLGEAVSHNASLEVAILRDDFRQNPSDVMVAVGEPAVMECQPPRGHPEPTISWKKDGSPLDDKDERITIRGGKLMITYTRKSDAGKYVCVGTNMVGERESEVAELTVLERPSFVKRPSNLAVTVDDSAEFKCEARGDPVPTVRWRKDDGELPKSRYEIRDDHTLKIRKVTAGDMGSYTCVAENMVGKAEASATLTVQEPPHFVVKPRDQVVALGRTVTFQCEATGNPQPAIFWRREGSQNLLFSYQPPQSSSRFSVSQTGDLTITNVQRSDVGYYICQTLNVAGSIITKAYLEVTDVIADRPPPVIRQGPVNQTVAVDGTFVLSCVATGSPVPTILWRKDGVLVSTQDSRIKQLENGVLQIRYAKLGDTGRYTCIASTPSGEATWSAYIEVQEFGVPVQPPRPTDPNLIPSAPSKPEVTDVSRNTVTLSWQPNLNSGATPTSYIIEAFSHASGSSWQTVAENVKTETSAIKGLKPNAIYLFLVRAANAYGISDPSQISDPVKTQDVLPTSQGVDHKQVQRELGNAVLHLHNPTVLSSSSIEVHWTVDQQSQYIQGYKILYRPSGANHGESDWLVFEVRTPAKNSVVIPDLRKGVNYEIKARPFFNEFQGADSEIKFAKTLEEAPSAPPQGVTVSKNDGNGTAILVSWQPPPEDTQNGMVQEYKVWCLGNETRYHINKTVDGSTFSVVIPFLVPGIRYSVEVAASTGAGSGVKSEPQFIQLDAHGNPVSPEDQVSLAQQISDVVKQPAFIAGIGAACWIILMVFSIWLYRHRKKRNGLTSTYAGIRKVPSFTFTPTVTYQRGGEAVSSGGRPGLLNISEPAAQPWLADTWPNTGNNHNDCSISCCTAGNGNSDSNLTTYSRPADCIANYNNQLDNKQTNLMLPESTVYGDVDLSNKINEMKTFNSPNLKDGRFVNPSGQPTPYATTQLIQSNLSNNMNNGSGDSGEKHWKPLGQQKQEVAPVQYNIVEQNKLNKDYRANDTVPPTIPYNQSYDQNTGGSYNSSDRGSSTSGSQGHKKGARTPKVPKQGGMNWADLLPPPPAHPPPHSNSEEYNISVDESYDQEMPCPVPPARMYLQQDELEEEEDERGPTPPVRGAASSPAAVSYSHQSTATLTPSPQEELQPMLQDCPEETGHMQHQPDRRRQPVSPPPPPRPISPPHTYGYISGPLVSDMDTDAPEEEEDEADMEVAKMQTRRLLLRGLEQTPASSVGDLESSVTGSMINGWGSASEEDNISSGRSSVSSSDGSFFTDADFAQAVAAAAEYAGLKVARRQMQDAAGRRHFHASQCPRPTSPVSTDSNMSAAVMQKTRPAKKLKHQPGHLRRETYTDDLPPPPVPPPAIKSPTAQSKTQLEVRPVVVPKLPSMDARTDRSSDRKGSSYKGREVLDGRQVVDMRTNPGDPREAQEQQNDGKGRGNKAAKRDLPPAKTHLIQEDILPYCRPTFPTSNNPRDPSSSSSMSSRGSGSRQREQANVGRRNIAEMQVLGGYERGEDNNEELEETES
Experiment: flow cytometry, HEK293 ROBO1-RSK cells
Protocol: (§1) Binding of the antibodies was detected using a secondary fluorochrome conjugated anti-human IgG F(ab′)₂ antibody and samples were analyzed on a Fortessa cytometer (BD Biosciences). The fold ROBO2 selectivity was calculated as the geometric mean fluorescence intensity (Geo MFI) with ROBO2 cells/Geo MFI with ROBO1 cells. A fold change higher than 3 was considered to be ROBO2 specific (Table 2, Fold Selectivity). Some affinity matured clones had increased ROBO1 reactivity, for example Abcs 55, CTI-R2-10 and CTIR2-13.
(§2) Based upon several criteria, Abcs25 and Abcs35 were selected for further characterization. Using flow cytometry, improvement in the binding EC₅₀ to human ROBO2 relative to the parental 93H2 was evaluated. Starting at 6.7 nM, 11-point, 3-fold dilution series were made for each antibody and used to stain HEK293 overexpressing human ROBO2 as described above for the ROBO2 fold selectivity (Example 2). […] In addition to measuring improved binding to human ROBO2, it was important to ensure that high affinity binding to both cynomolgus monkey ROBO2 and rat ROBO2 was maintained. Using HEK293 cells overexpressing either cynomolgus monkey ROBO2 or rat ROBO2, the relative dose-dependent binding of 93H2, Abcs25 and Abcs35 was evaluated as described above. High affinity binding to both cynomolgus monkey and rat ROBO2 was maintained in Abcs25 and Abcs35 (Table 4). […] Briefly, Abcs35 was immobilized to 300 resonance units (RU) on a CM5 chip. Association of ROBO2 Ig1-Ig2-His (ROBO2) was measured over 5 minutes and dissociation was followed for a period of 10 minutes.
RSK specificity for Abcs35, along with 93H2 and Abcs25, also was confirmed in a cell-based binding assay using flow cytometry. HEK293 cells overexpressing ROBO2 containing the KSR sequence from ROBO1 (ROBO2-KSR) or ROBO1 containing the RSK sequence from ROBO2 (ROBO1-RSK) were generated. As described above in Example 3, dose-dependent binding was evaluated.

EC50 [nM]	Binder
0.37	B1
0.061	B2

Binder	EC50 [nM]
B3	0.074

Target: T1, Rat ROBO2 on cells
Experiment: flow cytometry, HEK293 cells, average of n = 3
Protocol: as §1, §2

EC50 [nM]	Binder
1.2	B1
0.062	B2

Binder	EC50 [nM]
B3	0.048

Source: patent publication US20200157212A1 (Pfizer, published 2020)
